Assay results: patent publication US20240294651A1 (KYMAB, published 2024)

Columns and labels:
[1] = molecular target: T1, human CXCR4 (cell-expressed) (human, UniProt P61073 1-352); assay: cell-based or functional assay
[2] = molecular target: T1, human CXCR4 (cell-expressed); assay: cell-based or functional assay; remark: listed apart in the source
[3] = molecular target: T2, terbium-labelled SNAP-CXCR4 on HEK-293 cells (Cisbio C1TT1CXCR4) (human, UniProt P61072 1-352 (Pan troglodytes entry), terbium label on the SNAP tag); assay: TR-FRET (Tag-lite) competition with AlexaFluor 647-CXCL12 on terbium-labelled SNAP-CXCR4 HEK-293 cells
T2 construct: Bought assay-ready cells; also called CXCR4 expressing cells; not shown: SNAP tag

[4] = molecular target: T3, biotinylated CXCR4-virus like particle (Integral Molecular, Lot INT-1793B) (human, UniProt P61073 1-352, VLP biotinylated, sites not stated); assay: SPR (Biacore 8K), biotinylated CXCR4 VLP captured on SA chip, Fab as analyte, 25 C, 1:1 model
T3 construct: also called hCXCR4 VLP; CXCR4 VLP

Row | Binder | % Max Inhibition, beta-arrestin reporter assay, Tango CXCR4-bla U2OS cells [1] [%] | IC50, beta-arrestin reporter assay, Tango CXCR4-bla U2OS cells, 30 nM CXCL12 [1] [nM] | % Max Inhibition, cAMP HTRF assay, CXCR4 BacMam HEK-293 cells [2] [%] | IC50, cAMP HTRF assay, CXCR4 BacMam HEK-293 cells, 5.5 nM CXCL12 [2] [nM] | % Max Inhibition [3] [%] | IC50 [3] [nM] | Kd [4] [nM] | koff [4] [s⁻¹] | kon [4] [M⁻¹ s⁻¹]
1 | CL-82580 (antibody, human IgG4 S228P, kappa, V domains shown, Tested in human IgG4-PE format) VH: QVQLVQSGAEVKKPGASVKVSCRASGYTFTNYDINWVRQATGQGLEWMGWMNPNSGNTGYAQKFQGRVTMTRNTSISAAYMELSSLRSEDTAVYYCARGRGYYGSGSRYRGYYYYGMDVWGQGTTVTVSS VL: not shown | 100 | 1.15 | 90 | 46 | 97 | 1.41 |  |  | 
2 | CL-82551 (antibody, human IgG4 S228P, kappa, V domains shown, Tested in human IgG4-PE format) VH: QVQLVQSGAEVKKPGASVKVSCKASGYTFTSYDINWVRQATGQGLEWMGWMNPNSGNTGYAQKFQGRVTMTRNTSISTAYMELSSLRSEDTAVYYCARGRGYYGSGSHYRGYYYYGLDVWGQGTTVTVSS VL: DIQMTQSPSTLSASVGDRVTITCRASQSISSWLAWYQQKPGKAPKVLIYKASSLKSGVPSRFSGSGSGTEFTLTVSSLQPDDFATYYCQQYNSYSWTFGQGTKVEIKR | 98.2 | 1.56 | 92 | 39 | 98 | 1.21 |  |  | 
3 | CL-82495 (antibody, human IgG4 S228P, kappa, V domains shown, Tested in human IgG4-PE format) VH: QVQLVESGGGVVQPGRSLRLSCEASGFTLSSYGMHWVRQAPGKGLEWVAVIWNDGSNKYSADSVKGRFTISRDNSKNTLYLQMNRLRAEDTAVYYCARGGGYYGSGSHYRGYYYYGMDVWGQGTTVTVSS VL: DIQMTQSPSSLSASVGDRVTITCRASQGIRNDLGWYQQKPGKAPKRLIYAASSLQSGVPSRFSGSGSGTEFTLTISSLQPEDFATYYCLQHNSYPWTFGQGTKVEIKR | 98.9 | 2.08 | 96 | 27 | 100 | 1.71 |  |  | 
4 | CL-82583 (antibody, human IgG4 S228P, kappa, Tested in human IgG4-PE format) heavy: not shown light: DIQMTQSPSSLSASVGDRVTITCRASQGVRDDLGWYQQKPGKAPKRLIYAASSLQSGVPSRFSGSGSGTEFTLTISSLQPEDFATYYCLQHNSYPFTFGPGTKVDIKRTVAAPSVFIFPPSDEQLKSGTASVVCLLNNFYPREAKVQWKVDNALQSGNSQESVTEQDSKDSTYSLSSTLTLSKADYEKHKVYACEVTHQGLSSPVTKSFNRGEC | 94 | 0.17 | 91 | 28 | 98 | 0.72 |  |  | 
5 | CL-82556 (antibody, human IgG4 S228P, kappa, V domains shown, Tested in human IgG4-PE format) VH: QVQLVESGGGVVQPGRSLRLSCAASGFTFYSYGMHWVRQAPGKGLEWVAVIWYGGTNKYYADSVKGRFTISRDNSKNTLYLQMNSLTAEDTAVYYCARGQLERRRGGLNIWGQGTMVTVSS VL: DIQMTQSPSSLSASVGDRVTITCRASQGVRDDLGWYQQKPGKAPKRLIYAASNLQSGVPSRFSGSGSGTEFTLTIGSLQPEDFATYYCLQHNSYPFTFGPGTKVDIKR | 101 | 0.14 | 94 | 17 | 99 | 0.7 |  |  | 
6 | CL-82541 (antibody, human IgG4 S228P, kappa, V domains shown, Tested in human IgG4-PE format) VH: QVQLQESGPGLVKPSQTLSLTCTVSGGSISSGRYYWSWIRQLPGKGLEWIGYISYSGNPFYSPSLKSRVTISVDTSENQFSLKLSSVTAADTAVYYCARDRRIPMLRGVKGYYYGMDVWGQGTTVTVSS VL: not shown | 97.2 | 0.38 | 87 | 74 | 97 | 1.16 |  |  | 
7 | CL-82455 (antibody, human IgG4 S228P, kappa, V domains shown) VH: QVQLVESGGGVVQPGRSLRLSCAASGFTFNNYGMHWVRQAPGKGLEWVAVIWNDGSNKYYGDSVKGRFTISRDNSKNTLYLQMNSLRAEDTAVYYCARGGGYYGSGKHYRGYYYNGMGVWGQGTPVTVSS VL: EIVMTQSPATLSVSPGERATLSCRASQSVSSNLAWYQQKPGQAPRLLIYGASTRATGIPARFSGSGSGTEVTLTISSLQSEDFTIYYCQQYNNWPWTFGQGTKVDIKR | 86.8 | 9.12 | 103 | 91 |  |  |  |  | 
8 | CL-82577 (antibody, human IgG4 S228P, kappa, V domains shown, Tested in human IgG4-PE format) VH: QVQLQESGPGLVKPSQTLSLTCTVSGGSISSGGYYWTWIRQLPGKGLEWIGYMSYSGNTFYSPSLKSRFTISGDTSENQFSLKVNSVTSADTAIYYCARDRRIPMLRGIKGYYYGMDVWGQGTTVTVSS VL: not shown | 102 | 0.24 | 92 | 29 | 98 | 0.92 |  |  | 
9 | CL-82523 (antibody, human IgG4 S228P, kappa, V domains shown, Tested in human IgG4-PE format) VH: EVQLVESGGGLVQPGGSLRLSCAASGFTFSNYAMSWVRQAPRKGLEWVSVISGSGGRTNYAGSVKGRFSITRDNSKNTLYLQMNSLRAEDTAVYYCVKGQLERRYYYYYGMDVWGQGITVTVSS VL: DIQMTQSPSSLSASVGDRVTITCRASQGIRNDLGWYQQKPGKAPKRLIYAASSLQSGVPSRFSGSGSGTEFTLTISSLQPEDFATYYCLQHNSYPLTFGGGTKVEIKR | 101 | 0.08 | 87 | 24 | 101 | 0.55 |  |  | 
10 | CL-82562 (antibody, human IgG4 S228P, kappa, V domains shown, Tested in human IgG4-PE format) VH: QVQLVESGGGVVQPGRSLRLSCTASGFTFSNYAMHWVRQAPGKGLEWVAVISYDGSNKYCADSVKGRFTISRDNSKNTLYLQMNSLRAEDTAVYYCARGPLARRHYYYYGMDVWGQGTTVTVSS VL: DIQMTQSPSSLSASVGDRVTITCRASQGIRNDLGWYQQKPGKAPKRLIYGASSLQSGVPSRFSGSGSGTEFTLTISSLQPEDFATYYCLQHNSYPRTFGQGTKVEIKR | 101 | 0.52 | 92 | 99 | 100 | 0.86 |  |  | 
11 | CL-82571 (antibody, human IgG4 S228P, kappa, V domains shown, Tested in human IgG4-PE format) VH: EVQLVESGGGLVQPGGSLKLSCAASGFTFSGSAMHWVRQASGKGLEWVGRIRSKANKYATAYAASVKGRFTISRDDSKNTAYVQMKSLKTEDTAVYYCTWELSNYDILTGFYYGMDVWGQGTTVTVSS VL: DIQMTQSPSTLSASVGDRVTITCRASQSISNWLAWYQQKPGKAPKVLIYKASSLESGVPSRFSGSGSGTEFTLTISSLQPDDFATYYCQQYNSFSWTFGQGTKVEIKR | 85.6 | 1 | 88 | 44 | 96 | 1.47 |  |  | 
12 | CL-82517 (antibody, human IgG4 S228P, kappa, V domains shown, Tested in human IgG4-PE format) VH: EVQLVESGGGLVKPGGSLRLSCAASGFTFSSYSMNWVRQAPGKGLEWVSSISSSRRYIYYADSVKGRFTISRDNAKNSLYLQMNSLRAEDTAVYYCARAYGQVAPYYYYGMDVWGQGTTVTVSS VL: AIQLTQSPSSLSASVGDRVTITCRASQGISSALAWYQQKPGKAPKLLIYDASSLESGVPSRFSGSGSGTDFTLTISSLQPEDFATYYCQQFNSYPLTFGGGTKVEIKR | 89.6 | 0.84 | 79 | 34 | 96 | 1.06 |  |  | 
13 | CL-82473 (antibody, human IgG4 S228P, kappa, V domains shown, Tested in human IgG4-PE format) VH: QVQLVESGGGVVQPGRSLRLSCAASGFTFSSYGMHWVRQAPGKGLEWVTVILYGGSNKYYADSVKGRFTISRDNSKNTLYLQMNSLRAEDTAVYYCARGMLTYYYSSGFDYWGQGTLVTVSS VL: not shown | 85 | > 120 |  | > 1000 | 98 | 1.2 |  |  | 
14 | CL-148712 (antibody, human IgG4 S228P, kappa, V domains shown) VH: EVQLVESGGDLVQPGGSLRLSCAASGFTFYSYAMNWVRQAPGKGLKWVSGISGSGDITYYADSVKGRFTISRDNSKNTLYLQMHSLRAEDTAVYYCAKGQLERRYYKYYGMDVWGQGTTVTVSS VL: DIQMTQSPSSLSASVGDRVTITCRANQGIRNDLGWYQQKPGKAPKRLIYGASSLKSGVPSRFSGSGSGTEFTLTISSLQPEDFATYYCLQQNSYPLTFGGGTKVEIKR | 98.4 | 0.19 | 105 | 19 |  |  |  |  | 
15 | CL-82558 Fab fragment (Fab, V domains shown, Purified Fab fragment) VH: QVQLQESGPGLVKPSQTLSLTCTVSGGSISSGGYYWSWIRQVPGKGLEWIGYISYSGNTFYSPSLKSRVTISVDTSENKFSLRLTSVTAADTAVYFCARDRRIPMLRGVKGYYYGLDVWGQGTTVTVSS VL: DIVMTQSPLSLPVIPGEPASISCRSSQSLLHRNGYKYLDWYLQKPGQSPQLLIYLGSNRASGVPARFSGSGSGTDFTLKISRVEAEDVGVYYCMQALQTPWTFGQGTKVEIK |  |  |  |  |  |  | 0.67 | 0.00155 | 2.32e+06
